Measured values: article PMC2742680

Target: Galdieria sulphuraria sarcosine dimethylglycine methyltransferase (Galdieria sulphuraria)
Experiment: SEC

stoichiometry N: 2
Substance: Galdieria sulphuraria sarcosine dimethylglycine methyltransferase (enzyme)
